Consider one molecule from patent US10233249B2, “Antibodies and methods for treating estrogen receptor-associated diseases” (BEIJING SHENOGEN PHARMA GROUP LTD., priority 2013, dated 2019).

The target in assay [1] is T1, membrane bound ER-α36 protein in MCF-7 cells (Homo sapiens, UniProt P03372).
T1 construct: endogenous in cells; host or cells: MCF7
T1 sequence (P03372 1-310 isoform P03372-4): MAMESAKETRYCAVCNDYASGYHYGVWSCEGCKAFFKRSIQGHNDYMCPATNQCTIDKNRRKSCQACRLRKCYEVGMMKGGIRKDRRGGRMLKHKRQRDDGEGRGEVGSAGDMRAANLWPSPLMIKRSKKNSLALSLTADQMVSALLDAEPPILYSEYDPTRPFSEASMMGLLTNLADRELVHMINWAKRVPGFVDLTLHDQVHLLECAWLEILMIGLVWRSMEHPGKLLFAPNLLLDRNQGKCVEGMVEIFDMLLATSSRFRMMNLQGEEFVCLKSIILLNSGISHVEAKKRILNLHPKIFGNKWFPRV
Briefly: Immunofluorescence analysis of MCF-7 mammosphere. The class given is cell-based. On the procedure: The ability of SNGmB1 to detect membrane bound ER-α36 protein in MCF-7 cells was assessed using immunostaining. MCF-7 mammosphere was formed and immunostaining was performed by steps as follows:
1. MCF-7 cells were cultured in DMEM without phenol red for 2 days and stained with 7-aminoactinomycin D (7-AAD) followed by FACS sorting. The sorted cells were cultured in DMEM/F12 without phenol red medium (Gibo) with B27 (Invitrogen), EGF (BD Biosciences) and bFGF (BD Biosciences) for 6 days and the MCF-7 mammosphere was formed. 2. MCF-7 mammosphere was centrifuged at 1000 rpm for 4 min, and the supernatant was removed. 3. The mammosphere was washed with 500 μl PBS and was transferred to a 1.5 ml EP tube before centrifugation at 1000 rpm for 4 min, and the supernatant was discarded. 4. The precipitate was fixed with 500 μl paraformaldehyde (4%) for 20 min (or overnight), and was centrifuged at 1000 rpm for 4 min to move the supernatant. 5. The precipitate was washed with 500 μl PBS and centrifuged at 1000 rpm for 4 min, and the supernatant was discarded, wash three times using PBS. 6. The supernatant was removed and the precipitate was incubated with 50 μl goat serum blocking solution at 37° C. for 30 min; after centrifugation at 1000 rpm for 4 min, the supernatant was discarded. 7. […] The mammospheres was transferred to small observation dish, and stored at 4° C. to be detected.

In another assay the test system is K562 cells. Briefly: Internalization analysis by surface fluorescence quenching (FACS). The format is cell-based, human. The settings on record: 37° C., peak by 24 hours. As to the method:
The % internalization=(Qn-Qo)/(Nn-Qo); Qn=MFI (Mean Fluorescence Intensity) for a sample at a specific time point, after quench; Nn=MFI for a sample taken at a specific time point, no quench; Qo=MFI for sample incubated only on ice at 0 hour, after quench.
As the development of antibody drug conjugate relies on the carrier antibody to be internalized to deliver the chemotherapeutic agent into the tumor cells, the ability of SNGmB1 being internalized by K-562 cells was also assessed.
K562 cells were first cultured in normal IMDM medium for 24 hours. On the second day, the cells are collected by centrifugation and washed once with warm PBS, followed by resuspending into culture medium with IMDM without phenol red (Gibco) supplemented with 2.5% charcoal-stripped FBS (Gibo) without phenol red. After culturing for 48 hours, the cells were collected and centrifuged for 5 minutes at 1000 rpm. The cells were then incubated with AlexaFluro488-labelled anti-ER-α36 antibody SNGmB1 37° C. for different time (1, 2, 4, 6, 24 hours) to allow internalization to occur. The internalization was stopped by putting the cells on ice. Antibody internalization analysis of SNGmB1 by K562 cells was performed by surface fluorescence quenching and measured by MFI as detected by FACS. An anti-anti-AlexaFluro488 antibody was used to quench the AlexaFluro488-labeled SNGmB1 antibody bound on the K562 cell surface.

“Also recorded” adds a separate entry of the source.

B1: SNGmB1: mouse monoclonal anti-ER-α36 antibody (mIgG2b), light chain SEQ ID NO: 16, heavy chain SEQ ID NO: 18 (antibody, listed as Mus musculus)
heavy: QAYLQQSGAELVRPGASVKMSCKASGYTFTSHNMHWIKQTPRQGLEWIGAIHPVNGDTAYNQKFKGKATLTVDKSSSTAYLQLSSLTSEESAVYFCAREGYGSVDYWGQGTTLTVSSAKTTPPSVYPLAPGCGDTTGSSVTLGCLVKGYFPESVTVTWNSGSLSSSVHTFPALLQSGLYTMSSSVTVPSSTWPSQTVTCSVAHPASSTTVDKKLEPSGPISTINPCPPCKECHKCPAPNLEGGPSVFIFPPNIKDVLMISLTPKVTCVVVDVSEDDPDVQISWFVNNVEVHTAQTQTHREDYNSTIRVVSTLPIQHQDWMSGKEFKCKVNNKDLPSPIERTISKIKGLVRAPQVYILPPPAEQLSRKDVSLTCLVVGFNPGDISVEWTSNGHTEENYKDTAPVLDSDGSYFIYSKLNMKTSKWEKTDSFSCNVRHEGLKNYYLKKTISRSPGK
light: ETTVTQSPASLSMTIGEKVTIRCITSTDIDDDMNWYRKKPGQPPKLLISEGNTLRPGVPSRFSSSGYGTDFVFTIENMLSEDVADYYCLQSDNLPLTFGAGTKLELKRADAAPTVSIFPPSSEQLTSGGASVVCFLNNFYPKDINVKWKIDGSERQNGVLNSWTDQDSKDSTYSMSSTLTLTKDEYERHNSYTCEATHKTSTSPIVKSFNRNEC
Take B1: in assay [1], the “immunostaining of membrane bound ER-α36 on MCF-7 mammospheres” value is recorded as “stained the MCF-7 mammospheres in a dose-dependent manner; also recorded: can detect membrane bound ER-α36 on MCF7”. Also, the “percentage of internalized antibody (of the bound antibody)” value in the assay on K562 cells is ~75%.
